Results from patent publication US20260055150.

Assays:
[1] = biological target: wild type p53 (bacterially purified, commercial), P04637
[2] = biological target: mutant p53 (bacterially purified, commercial), P04637

B1: GRAIL C-terminal fragment (amino acids 229-428), recombinant (protein)
chain: YSARRLRNARAQSRKQRQLKADAKKAIGRLQLRTLKQGDKEIGPDGDSCAVCIELYKPNDLVRILTCNHIFHKTCVDPWLLEHRTCPMCKCDILKALGIEVDVEDGSVSLQVPVSNEISNSASSHEEDNRSETASSGYASVQGTDEPPLEEHVQSTNESLQLVNHEANSVAVDVIPHVDNPTFEEDETPNQETAVREIKS
in vitro ubiquitination assay (UBE1, UBCH5, Myc-tagged ubiquitin), immunoblot [1]: a C-terminal RF containing GRAIL fragment is efficient in polyubiquitinating mutant p53 as compared to wild type protein
in vitro ubiquitination assay (UBE1, UBCH5, Myc-tagged ubiquitin), immunoblot [2]: a C-terminal RF containing GRAIL fragment is efficient in polyubiquitinating mutant p53 as compared to wild type protein
